Test results from publication PMC2798062.

Key:
[1] = tested on: C[C@H]1C=C2C=C[C@H](C)[C@H](CC[C@@H](O)C[C@@H](O)CC(=O)O)[C@H]2[C@@H](O)C1; assay: purified protein; type: biochemical, Aspergillus terreus; details: 2 mM DMB-SMMP fixed, 10% DMSO, 25°C
CCC(C)(C)C(=O)SCCC(=O)OC = assay: purified protein; type: biochemical, Aspergillus terreus; details: 2 mM MJA fixed; 10% DMSO; table header prints mM^-1, text b12 prints mM; 25.0 °C

LovD G0 (Aspergillus terreus; A86V/C40A/C60N)
Km ([1]; mutant G1): 740 ± 160 µM
kcat ([1]; mutant G1): 0.0132 ± 0.0005 s⁻¹

LovD G0 (Aspergillus terreus; A190T/A86V/C40A/C60N/D12G/G275S)
Km ([1]; mutant G3): 770 ± 110 µM
kcat ([1]; mutant G3): 0.031 ± 0.0015 s⁻¹

LovD G0 (Aspergillus terreus; A190T/A86V/C40A/C60N/D12G/G275S/H161Y/K26E)
Km ([1]; mutant G5): 740 ± 30 µM
kcat ([1]; mutant G5): 0.0435 ± 0.0005 s⁻¹

LovD G0 (Aspergillus terreus; A190T/A86V/C40A/C60N/D12G/G275S/H161Y/K26E/L361M/V334D)
Km ([1]; mutant G6): 700 ± 70 µM
kcat ([1]; mutant G6): 0.055 ± 0.001 s⁻¹

LovD G0 (Aspergillus terreus; A190T/A86V/C40A/C60N/D12G/G275S/H161Y/K26E/V334F)
Km ([1]; mutant G7): 700 ± 40 µM
kcat ([1]; mutant G7): 0.08 ± 0.001 s⁻¹

LovD G0 (Aspergillus terreus; C40A/C60N)
Km [1]: 770 ± 170 µM
kcat [1]: 0.011 ± 0.0005 s⁻¹
Km (CCC(C)(C)C(=O)SCCC(=O)OC): 0.67 ± 0.12 mM
kcat (CCC(C)(C)C(=O)SCCC(=O)OC): 0.011 ± 0.0005 s⁻¹
